Test results: US20060264378A1 (BIOKINE THERAPEUTICS, published 2006)
Numbered stars: 1 amine (or outer) side, 2 acyl side, 3 side chain; on linkers, the order of the positions; unused ones are H or OH. Bridge positions count the residues as written; N and C are the ends. Square brackets hold non-standard residues; d marks the D form. Ends that are not written are not given here. * marks the point of attachment. deaminoTMG = tetramethylguanyl on 5-aminopentanoyl (deaminoTMG-APA, formula II); guanyl = guanyl, N-terminal group, N=C(N)*; 2Nal = N[C@@H](Cc1ccc2ccccc2c1)C(=O)O; Glutaryl = O=C(CCCC(=O)[*:2])[*:1]; Benzoyl(4-F) = O=C(c1ccc(F)cc1)*; dCit = NC(=O)NCCC[C@@H](N)C(=O)O; Cit = NC(=O)NCCC[C@H](N)C(=O)O; Suc = O=C(CCC(=O)[*:2])[*:1]; Ahx = NCCCCCC(=O)O; Ava = NCCCCC(=O)O

B1: TF19 (peptide)
peptide: XRRXCYXKXPYRXCRX
modifications: N-terminal 6-aminohexanoyl (ACA); Nal (L-3-(2-naphthyl)alanine) at 3; Cit (L-citrulline) at 6 and 12; D-Cit (D-citrulline) at 8; disulfide Cys4-Cys13; C-terminal amide (-NH2)
B2: TC14012 (peptide)
peptide: RRXCYXKXPYRXCR
modifications: X at 3 = Nal (L-3-(2-naphthyl)alanine); X at 6 and 12 = Cit (L-citrulline); X at 8 = D-Cit (D-citrulline); disulfide Cys4-Cys13; free N-terminus (H-); C-terminal amide (-NH2)
notes: Tested as acetate salt
B3: TF18 (peptide)
peptide: XRRXCYXKXPYRXCRX
modifications: N-terminal tetramethylguanyl; Nal (L-3-(2-naphthyl)alanine) at 3; Cit (L-citrulline) at 6 and 12; D-Cit (D-citrulline) at 8; disulfide Cys4-Cys13; C-terminal amide (-NH2)
B4: TE14003 (peptide)
peptide: H-RR[2Nal]CYEK[dK]PYR[Cit]CR-OH
modifications: disulfide 4-13 (inferred); not fully specified; printed as H-Arg-Arg-Nal-Cys-Tyr-Glu-Lys-DLys-Pro-Tyr-Arg-Cit-Cys-Arg-OH; also: acetate salt
B5: TF15 (peptide)
peptide: H-RR[2Nal]CY[Cit]K[dE]PYR[Cit]CR-NH2
modifications: disulfide 4-13; also: reduced CH2-NH bond between residues 1 and 2, acetate salt
B6: TE14004 (peptide)
peptide: H-RR[2Nal]CYRE[dK]PYR[Cit]CR-OH
modifications: disulfide 4-13 (inferred); not fully specified; printed as H-Arg-Arg-Nal-Cys-Tyr-Arg-Glu-DLys-Pro-Tyr-Arg-Cit-Cys-Arg-OH; also: acetate salt

What follows are binders tested against CXCR4 on mouse splenocytes (mouse, UniProt P70658 1-359) (assay: cell-based or functional assay).
Chain of CXCR4 on mouse splenocytes (P70658 whole entry): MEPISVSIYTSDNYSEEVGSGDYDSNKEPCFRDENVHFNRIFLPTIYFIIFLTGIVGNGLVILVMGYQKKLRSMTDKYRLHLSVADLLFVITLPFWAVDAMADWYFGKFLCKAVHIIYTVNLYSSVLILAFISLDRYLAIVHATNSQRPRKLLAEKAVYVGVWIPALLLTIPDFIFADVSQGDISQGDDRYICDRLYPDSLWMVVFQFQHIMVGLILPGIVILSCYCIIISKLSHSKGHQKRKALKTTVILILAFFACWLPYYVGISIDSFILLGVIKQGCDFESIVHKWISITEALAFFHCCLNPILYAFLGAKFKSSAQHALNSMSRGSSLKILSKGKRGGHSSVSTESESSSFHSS
In the case of {Benzoyl(4-F)}-RR[2Nal]CY[Cit]K[dK]PYR[Cit]CR-NH2 (disulfide 4-13; also: acetate salt) [4F-benzoyl-TN14003], the “IC50 of inhibition of SDF-1-induced migration of mouse splenocytes (Transwell)” value is reported as 0.54 nM.

What follows are binders tested against T1, CXCR4 receptor (human, UniProt P61073 1-352) (assay: cell-based or functional assay).
T1 construct: whole, on cells; Endogenous receptor on human cells
T1 sequence (P61073 whole entry): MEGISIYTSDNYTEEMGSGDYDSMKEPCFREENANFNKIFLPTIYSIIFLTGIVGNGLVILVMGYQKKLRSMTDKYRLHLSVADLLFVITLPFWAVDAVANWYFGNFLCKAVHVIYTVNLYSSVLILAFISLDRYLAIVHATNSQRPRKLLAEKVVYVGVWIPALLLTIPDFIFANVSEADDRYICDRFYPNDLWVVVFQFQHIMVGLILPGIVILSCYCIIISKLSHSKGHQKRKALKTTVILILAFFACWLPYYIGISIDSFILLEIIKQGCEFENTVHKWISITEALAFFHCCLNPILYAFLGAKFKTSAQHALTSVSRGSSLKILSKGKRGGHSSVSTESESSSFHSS
{Benzoyl(4-F)}-RR[2Nal]CY[Cit]K[dK]PYR[Cit]CR-NH2 (disulfide 4-13; also: acetate salt) [4F-benzoyl-TN14003] gave an IC50 of inhibition of SDF-1α-induced migration of Jurkat cells (Transwell) of 0.65 nM.

Each binder was assayed against T1, CXCR4 receptor (assay: displacement of 125I-CXCL12 from Jurkat cells, filter binding).
Experimental: 50 μL of Jurkat human T-cell leukemia cells (6×10⁶ cells/mL) suspended in buffer (Dulbecco's PBS solution (pH 7.0) containing 0.5% BSA, 20 mM HEPES), 25 μL of test compounds (Table 2: each compound being synthesized in the form of acetate salt) diluted by buffer and 25 μL of 200 p M 125I-CXCL12 solution were respectively dispensed to each well of the plate, and were subjected to fixation reaction for 1 hour at room temperature. After reaction, suction was made toward the reaction solution by 96 well GF/C filter plate, and each well's radioactivity was measured by top count. As the radioactivity index of 100% when the test compound was not added, and 0% when 100 nM of non-radioisotope-labeled CXCL12 was added, the inhibitory activity of each test compound was measured.
For Ac-RR[2Nal]CY[Cit]K[dE]PYR[Cit]CR-NH2 (disulfide 4-13; also: acetate salt) [TF1], the IC50 was 11 nM. {deaminoTMG-Ava}-R[2Nal]CY[Cit]K[dE]PYR[Cit]CR-NH2 (disulfide 3-12; also: acetate salt) [TF12] gave an IC50 of 4.6 nM. Binder H-RR[2Nal]CYRK[dK]PYE[Cit]CR-OH (disulfide 4-13 (inferred); also: acetate salt) [TE14006] has an IC50 of 5.6 nM. H-RR[2Nal]CY[dE]K[dE]PYR[Cit]CR-NH2 (disulfide 4-13; also: acetate salt) [TE14013] showed an IC50 of 9.3 nM. With B1 the IC50 was 4.5 nM. Suc-R[2Nal]CY[Cit]K[dE]PYR[Cit]CR-NH2 (disulfide 3-12; also: acetate salt) [TF10] was tested, and the IC50 was 48 nM. Binder {2‑fluorobenzoyl}-RR[2Nal]CY[Cit]K[dE]PYR[Cit]CR-NH2 (disulfide 4-13; also: acetate salt) [TF6] has an IC50 of 3.9 nM. Work on B2 yielded an IC50 of 2.7 nM. B3 gave an IC50 of 8 nM. {2‑desamino‑arginyl}-R[2Nal]CY[Cit]K[dE]PYR[Cit]CR-NH2 (disulfide 3-12; also: acetate salt) [TF8] was tested, and the IC50 was 8.2 nM. Binder H-RR[2Nal]CY[Cit]K[dE]PYR[Cit]CR-NH2 (disulfide 4-13; also: acetate salt) [TE14011] has an IC50 of 2.9 nM. Work on H-RR[2Nal]CY[dE]K[dCit]PYR[Cit]CR-NH2 (disulfide 4-13 (inferred); also: acetate salt) [TE14012] yielded an IC50 of 5.4 nM. guanyl-R[2Nal]CY[Cit]K[dE]PYR[Cit]CR-NH2 (disulfide 3-12; also: acetate salt) [TF9] showed an IC50 of 250 nM. In the case of tetramethylguanyl-R[2Nal]CY[Cit]K[dE]PYR[Cit]CR-NH2 (disulfide 3-12; also: acetate salt) [TF4], the IC50 is reported as 9.9 nM. With {Benzoyl(4-F)}-RR[2Nal]CY[Cit]K[dK]PYR[Cit]CR-NH2 (disulfide 4-13; also: acetate salt) [4F-benzoyl-TN14003] the IC50 was 0.99 nM. Binder {Benzoyl(4-F)}-RR[2Nal]CY[Cit]K[dE]PYR[Cit]CR-NH2 (disulfide 4-13; also: acetate salt) [TF5] has an IC50 of 2.8 nM. Binder H-RR[2Nal]CYRK[dE]PYR[Cit]CR-OH (disulfide 4-13; also: acetate salt) [TE14005] has an IC50 of 2.2 nM. B4 was tested, and the IC50 was 5 nM. For {nelfinaviryl-Suc}-R[2Nal]CY[Cit]K[dE]PYR[Cit]CR-NH2 (disulfide 3-12; also: acetate salt) [TF13], the IC50 was 21 nM. With {AZT-Glutaryl}-R[2Nal]CY[Cit]K[dE]PYR[Cit]CR-NH2 (disulfide 3-12; also: acetate salt) [TF14] the IC50 was 49 nM. H-R[2Nal]CY[Cit]K[dE]PYR[Cit]CR-NH2 (disulfide 3-12; also: acetate salt) [TF17] gave an IC50 of 79 nM. With H-RE[2Nal]CYRK[dK]PYR[Cit]CR-OH (disulfide 4-13; also: acetate salt) [TE14002] the IC50 was 680 nM. Work on {5‑aminopentanoyl}-R[2Nal]CY[Cit]K[dE]PYR[Cit]CR-NH2 (disulfide 3-12; also: acetate salt) [TF7] yielded an IC50 of 5.7 nM. tetramethylguanyl-RR[2Nal]CY[Cit]K[dE]PYR[Cit]CR-NH2 (disulfide 4-13; also: acetate salt) [TF3] was tested, and the IC50 was 9.6 nM. guanyl-RR[2Nal]CY[Cit]K[dE]PYR[Cit]CR-NH2 (disulfide 4-13; also: acetate salt) [TF2] showed an IC50 of 3.3 nM. [Ahx]RR[2Nal]CYRK[dK]PYR[Cit]CR-OH (disulfide 5-14; also: acetate salt) [TF20] gave an IC50 of 3.5 nM. Binder B5 has an IC50 of 95 nM. Glutaryl-R[2Nal]CY[Cit]K[dE]PYR[Cit]CR-NH2 (disulfide 3-12; also: acetate salt) [TF11] was tested, and the IC50 was 630 nM. With H-RR[2Nal]CY[Cit]K[dK]PYR[Cit]CR-NH2 (disulfide 4-13; also: acetate salt, Tested as acetate salt) [TN14003] the IC50 was 2.6 nM. B6 gave an IC50 of 6.8 nM.
